Measurements taken from publication PMC7914648 (Pharmaceuticals, 2021).

Assay: Tissue distribution of An2-PAPTP and metabolites (liver, spleen, kidneys, heart) after i.v. injection
Type: in vivo, mouse
From the text: The total amount of An2-PAPTP and its metabolites, summarized in Table 3, is comprehensive of all the species having the characteristic psoralenic UV spectrum obtained by the overall extraction procedure (i.e., from organic solvent extraction and basic hydrolysis of the remaining pellet), and represents and underestimation of the real concentration in the tissue (see Section 4.7.3). This is because no recovery yield correction was applied, since it was impossible to identify most of the species extracted, and because PAPTPL extracted after high-pH hydrolysis of the pellet could come either from An2-PAPTP or from metabolites. For quantification in HPLC analysis, all the psoralenic species were assumed to have the same molar extinction coefficient as PAPTPL, an assumption justified by the near-identity observed for all the available psoralen-containing molecules.
(§1) The liver, spleen, kidneys, heart obtained from untreated mice were weighed and homogenized with PBS pH 7.4 (1 vol) with a potter. The pre-established amount of PAPTPL was added into tissue homogenates or blood and, after thorough vortexing, 5 vol of acetone were added and the sample was sonicated for 2 min. Subsequently, 5 vol of ACN containing 0.1% TFA were added and the sample was sonicated for 5 min. The sample was then centrifuged at 12,000× g for 7 min at 4 °C and the supernatant was collected, concentrated with a Hetovac VR-1, and analyzed via HPLC-UV.
as §1, with “Brain and liver” for “The liver, spleen, kidneys, heart”, “analyte” for “PAPTPL”, “homogenates” for “homogenates or blood”, “trifluoracetic acid (TFA)” for “TFA”
To quantify the amount of An2-PAPTP stuck in the tissue, the pellet remaining after the procedure described above was incubated with intermittent Vortexing at 60 °C for 3 h with PBS pH 12.5/ACN 1:1 and then centrifuged at 12,000× g for 7 min. HPLC-UV analysis of the supernatant, measuring PAPTPL hydrolyzed from the tissue, thus indirectly reflects the amount of An2-PAPTPL in the pellet (Scheme 3). Quantification was as described for PAPTPL.
A stock solution of the peptide-PAPTP conjugates was prepared in DMSO. TAT-PAPTP was administered at 8 and 5 μmol/kg bw and An2-PAPTP only at 5 μmol/kg bw. The calculated quantity of drugs was diluted from the stock solution in saline or mouse plasma to a final volume of 200 μL.

[1] = An2-PAPTP 5 µmoles/kg bw i.v., all psoralenic species, 312 nm, no recovery correction, mean ± SEM, n = 5
[2] = An2-PAPTP i.v., found in one animal out of four
[3] = An2-PAPTP i.v., mean ± SEM, n = 4
[4] = An2-PAPTP i.v., mean ± SEM, n = 5
[5] = An2-PAPTP i.v., mean ± SEM, n = 6

In the case of `CC[C@H](C)[C@H](NC(=O)Oc1ccc(CCCOc2ccc([P+](CCCc3ccc(OCCCCOc4c5ccoc5cc5oc(=O)ccc45)cc3)(c3ccccc3)c3ccccc3)cc2)cc1)C(=O)N[C@H](C(=O)N[C@@H](Cc1ccccc1)C(=O)N[C@@H](Cc1ccccc1)C(=O)N[C@@H](Cc1ccc(O)cc1)C(=O)NCC(=O)NCC(=O)N[C@@H](CO)C(=O)N[C@@H](CCCNC(=N)N)C(=O)NCC(=O)N[C@@H](CCCCN)C(=O)N[C@@H](CCCNC(=N)N)C(=O)N[C@@H](CC(N)=O)C(=O)N[C@@H](CC(N)=O)C(=O)N[C@@H](Cc1ccccc1)C(=O)N[C@@H](CCCCN)C(=O)N[C@H](C(=O)N[C@@H](CCC(=O)O)C(=O)N[C@@H](CCC(=O)O)C(=O)N[C@@H](Cc1ccc(O)cc1)C(=O)O)[C@@H](C)O)[C@@H](C)O` [An2-PAPTP], the “Heart Psoralenic Species (nmol/g Tissue), 15 min” value [1] is reported as 0.2 ± 0.1 nmol/g Tissue, the “Kidney Psoralenic Species (nmol/g Tissue), 15 min” value [1] is reported as 5 ± 4 nmol/g Tissue and the “Spleen Psoralenic Species (nmol/g Tissue), 15 min” value [1] is reported as 28 ± 9 nmol/g Tissue. The “Liver Psoralenic Species (nmol/g Tissue), 15 min” value (An2-PAPTP 5 µmoles/kg bw i.v., all species with psoralenic UV spectrum, 312 nm, no recovery correction, mean ± SEM, n = 5) was 23 ± 3 nmol/g Tissue, the “degradation of the peptide chain by liver peptidases” value (An2-PAPTP 5 µmoles/kg bw i.v., liver, in vivo) was “degraded the peptide chain nearly completely in little more than one hour” and the “Heart Psoralenic Species (% of Administered Dose), 30 min, single animal” value [2] was 0.07 % of Administered Dose. The “Heart Psoralenic Species (nmol/g Tissue), 30 min, single animal” value [2] was 0.36 nmol/g Tissue, the “Kidney Psoralenic Species (% of Administered Dose), 30 min” value [3] was 0.32 ± 0.07 % of Administered Dose and the “Spleen Psoralenic Species (% of Administered Dose), 30 min” value [3] was 0.27 ± 0.09 % of Administered Dose. For the same compound, the “Heart Psoralenic Species (% of Administered Dose), 15 min” value [4] was 0.07 ± 0.01 % of Administered Dose, the “Kidney Psoralenic Species (% of Administered Dose), 15 min” value [4] was 1.2 ± 0.8 % of Administered Dose and the “Spleen Psoralenic Species (% of Administered Dose), 15 min” value [4] was 1.2 ± 0.3 % of Administered Dose. The “Kidney Psoralenic Species (% of Administered Dose), 60 min” value [5] was 0.31 ± 0.03 % of Administered Dose, the “Spleen Psoralenic Species (% of Administered Dose), 60 min” value [5] was 0.8 ± 0.2 % of Administered Dose and the “Heart Psoralenic Species (% of Administered Dose), 60 min” value (An2-PAPTP i.v., n = 6) was 0 % of Administered Dose. The “Heart Psoralenic Species (nmol/g Tissue), 60 min” value (An2-PAPTP i.v., n = 6) was 0 nmol/g Tissue, the “Liver Psoralenic Species (nmol/g Tissue), 30 min” value (as above, 30 min, n = 4) was 17 ± 2 nmol/g Tissue and the “Liver Psoralenic Species (nmol/g Tissue), 60 min” value (as above, 60 min, n = 6) was 11 ± 3 nmol/g Tissue. For the same compound, the “Kidney Psoralenic Species (nmol/g Tissue), 30 min” value (as above, n = 4) was 1.3 ± 0.2 nmol/g Tissue, the “Spleen Psoralenic Species (nmol/g Tissue), 30 min” value (as above, n = 4) was 4.3 ± 1.4 nmol/g Tissue and the “Kidney Psoralenic Species (nmol/g Tissue), 60 min” value (as above, n = 6) was 1.2 ± 0.1 nmol/g Tissue. For the same compound, the “Spleen Psoralenic Species (nmol/g Tissue), 60 min” value (as above, n = 6) was 11 ± 3 nmol/g Tissue.
